One may read the Kd as the free concentration of one partner at which half of the binding sites on the other are occupied at equilibrium, for simple one-to-one binding. A word on the stoichiometry N: it is a count of units in the complex or per binding partner.

One assay addresses IscS (Escherichia coli) (UniProt P0A6B7). In words: native mass spectrometry. Particulars: cited from earlier work.
In assay [1] the target is R220/223/225E triple variant of IscS (E. coli) (UniProt P0A6B7). In words: native MS; ESI-MS under non-denaturing conditions of IscS alone, 250 mM ammonium acetate, pH 8.0.
The target in assay [2] is L-cysteine desulfurase IscS (E. coli) (UniProt P0A6B7).
Assay [3] shares this target. In words: native MS; ~8 µM IscS (~4 µM dimeric IscS) titrated with increasing TusA in 250 mM ammonium acetate, pH 8.0; fractional intensities fitted to a sequential binding model (Dynafit).

In the case of IscU (from UniProt P0ACD4), the equilibrium dissociation constant (Kd) in the assay with IscS (Escherichia coli) is 3 µM.
As for “R220/223/225E triple variant of IscS (from UniProt P0A6B7 1-404) (enzyme)”, in assay [1], the stoichiometry N is 2.
In assay [2], “TusA (from UniProt P0A890 1-81) (natural protein)” had a L-cysteine desulfurase activity of IscS (methylene blue assay) after addition of TusA of 3 fold. In assay [3], this substance showed a Kd of 8 µM.
On to “TusA C19S variant (from UniProt P0A890 1-81) (natural protein)”, for which the dissociation constant Kd in assay [3] was determined as 8 µM.
The same measure, in the same setting: then “TusA C56A variant (from UniProt P0A890 1-81) (natural protein)”, with 8 µM.

The values above are taken from PMC11302665.
